Measured values from patent US12714679B2, “Fullerenes to treat diseases and conditions” (The Cleveland Clinic Foundation, priority 2018, dated 2026).

What was measured:
[1] = Lead acetate (PbA/PbS) assay, catalytic H2S production from cysteine; assay type: biochemical
Procedure: Further work was conducted as follows with regard to the catalytic production of H2S by PHFs. PHF (SJJR; 10 mg/mL) was added to a mixture of L-cysteine (10 mM) and […] (PLP; 1 mM) in a 96-well plate and then covered with a blotting paper saturated with lead acetate. After 24 hours, the lead acetate paper was removed and scanned. The lead sulfide dots were analyzed for average integrated density using ImageJ. After every 24 hours, the wells were replenished with L-cysteine (10 mM) and covered with the lead acetate paper and the lead sulfide dots were analyzed.
Lead acetate assay: The kinetics and catalysis coefficients for PHF catalyzed H2S production were determined using lead acetate assay (PbA/PbS assay) as generally described in Hine and Mitchell, “Endpoint and Kinetic Measurement of Hydrogen Sulfide Production Capacity in Tissue Extracts” Bio-Protocol, 7 (13), e2382, 2017). Briefly: Reaction mixtures (150 μL/well) containing PHF or enzyme (CGL), enzyme co-factor (PLP) and substrate (e.g., cysteine) were tested in 96-well plates Immediately after addition of catalyst, 96-well plates were covered with lead acetate saturated paper and placed inside a 37° C. cell culture incubator. At a predetermined time point, the lead acetate paper was removed and scanned, and the lead sulfide dots analyzed with ImageJ using the IntDen function. A calibration curve was prepared with different concentrations of sodium hydrosulfide plotted against the integrated density obtained on lead acetate/lead sulfide paper. The presence of pyruvic acid after reaction was confirmed in a preliminary experiment by liquid chromatography—mass spectroscopy.
To determine the steady-state kinetic parameters experiments were carried out with different initial substrate concentrations. The initial (linear) slope from the graph of H2S concentration versus time at each substrate concentration was used to determine the reaction velocity, which was plotted against initial cysteine concentrations to obtain Michaelis-Menten curves (FIGS. 5 and 6). Least squares non-linear fitting was used to determine values of Km and Vmax from the equation v=Vmax [S]/(Km+[S]).

HR-TEM size = assay type: physicochemical
Description: FIG. 3: Panel A) a hypothetical schematic illustration of the breakdown of cysteine to hydrogen sulfide, ammonia and pyruvic acid. While the present disclosure is not limited to any particular mechanism and an understanding of the mechanism is not necessary to practice the invention, it is believed that polyhydroxy fullerenes (PHF) mimic carbon-sulfur lyases. It was found during work conducted during development of embodiments herein that PHFs catalyze the breakdown of cysteine under physiological conditions. Panel B) HR-TEM image of PHF (C60(OH)9O7Na6) showing a cluster size of 3.4±0.5 nm. Panel C) HR-TEM image of CGL showing a molecular size of 4.1±0.4 nm.

[2] = Without PLP, substrate L-Cysteine

## Cc1ncc(COP(=O)(O)O)c(C=O)c1O [PLP, pyridoxal-5′-phosphate, reference compound]
[1]; PLP with cysteine, no PHF, in 24 hours
  H2S produced: 0.024 mM

B1: cystathionine γ-lyase (protein, UniProt P32929 1-405, looked up)
Cystathionine gamma-lyase: MQEKDASSQGFLPHFQHFATQAIHVGQDPEQWTSRAVVPPISLSTTFKQGAPGQHSGFEYSRSGNPTRNCLEKAVAALDGAKYCLAFASGLAATVTITHLLKAGDQIICMDDVYGGTNRYFRQVASEFGLKISFVDCSKIKLLEAAITPETKLVWIETPTNPTQKVIDIEGCAHIVHKHGDIILVVDNTFMSPYFQRPLALGADISMYSATKYMNGHSDVVMGLVSVNCESLHNRLRFLQNSLGAVPSPIDCYLCNRGLKTLHVRMEKHFKNGMAVAQFLESNPWVEKVIYPGLPSHPQHELVKRQCTGCTGMVTFYIKGTLQHAEIFLKNLKLFTLAESLGGFESLAELPAIMTHASVLKNDRDVLGISDTLIRLSVGLEDEEDLLEDLDQALKAAHPPSGSHS
notes: enzyme producing H2S from cysteine, comparator catalyst
[1]; PBS
  H2S production at room temperature: produced H2S only in presence of PLP
[1]; PBS, presence or absence of PLP
  H2S production at 4° C.: No H2S was produced
[1]; With PLP, substrate L-Cysteine
  KCAT: 130 s⁻¹
  Km: 25.4 mM
  Vmax: 2.9 nM/s
[1]; [2]
  KCAT: 5800 s⁻¹
  Vmax: 1.3 nM/s
HR-TEM size
  molecular size: 4.1±0.4 nm
